Several values for one entry are separate records, joined by “and”; a condition that tells them apart may be missing. Identical values can stand only once. Where no end group is shown, it is not given here.
Assay: Liver serum markers after PFC injection
Type: in vivo, mouse
Parameters: serum level of ALP (alkaline phosphatase) / serum level of ALT (alanine aminotransferase) / serum level of GLDH (glutamate dehydrogenase) / serum level of AST (aspartate aminotransferase): unit not given here
Settings: 1 mM per kg BW i.v. over 3 consecutive days, blood 24 h after last injection; individual mice
Description: ^ConPFCs, ^mNPPFCs (each at 1 mM per kg BW) or saline were injected i.v. over 3 consecutive days. Twenty-four hours after the last injection, mice were killed, and blood samples were withdrawn to determine GLDH, AST, ALP, ALT and bilirubin levels by standard clinical procedures. Furthermore, the liver and spleen were dissected, fixed in formalin and snap frozen. Subsequently, 4-µm cryosections were cut and stained with hematoxylin and eosin as described previously.
Extended Data Fig. 3 Assessment of ^mNPPFC/^ConPFC biodistribution, liver serum markers and histology of liver and spleen. a, Biodistribution of intravenously injected ^mNPPFCs was determined via ^19F MRI measurements at distinct time points after injection (1, 3, 6 and 24 h after injection). Shown are quantification of fluorine signal intensities in the blood, liver and spleen indicating a fast wash-out from the blood accompanied by a strong influx into the liver while signal intensities in the spleen were constant over the entire observation period; a.u. = arbitrary units. b, Serum levels of GLDH (glutamate dehydrogenase), AST (aspartate aminotransferase), ALP (alkaline phosphatase), ALT (alanine aminotransferase) and bilirubin after intravenous application of NaCl as control, ^ConPFCs or ^mNPPFCs. c + d, 4 µm sections of liver (C) and spleen (D) stained with hematoxylin and eosin. Organs were excised and processed for histology 24 h post injection of NaCl (upper row), ^ConPFCs (middle), ^mNPPFCs (lower). Representative liver/spleen images of organs from three different animals are shown. Scale bars indicate 100 µm. Data are mean values ± SD of n = 6 (a), n = 4-6 (b) and n = 6 (c + d) independent experiments. Source data

Substance | serum level of ALP (alkaline phosphatase) | serum level of ALT (alanine aminotransferase) | serum level of AST (aspartate aminotransferase) | serum level of GLDH (glutamate dehydrogenase)
DFYKPMPNLRITGGGC [mNP] | 4.3 and 4.6 and 15.5 and 19.1 and 10.5 and 11.8 | 0.1 and 1 and 0.8 | 1.5 and 6.8 and 1.6 and 1.4 and 2.5 and 2.3 | 0.89 and 1.11 and 3.48 and 0.9 and 0.22 and 0.33
SLAMFLTHSPEP-GGG-C [Con, reference compound] | 5.7 and 16.2 and 33.5 and 13.2 and 6.6 and 3.4 | 1.6 and 0.9 and 0.6 and 0.8 and 1.3 | 0.4 and 2 and 3.4 and 0.6 and 3.1 and 2.6 | 1.19 and 1.21 and 2.18 and 0.14

From PMC11357992, “Non-invasive mapping of systemic neutrophil dynamics upon cardiovascular injury” (Nature Cardiovascular Research, 2023)
